In article doi:10.1101/2021.06.16.448687 (bioRxiv, 2021):

Biological target: the molecule itself
Test: AUC

B1: stabilized H176C form of the soluble human LLT1 ectodomain (Gln72-Val191), glycosylated (domain or fragment, UniProt Q9UHP7 72-191, looked up)
chain: QAACPESWIGFQRKCFYFSDDTKNWTSSQRFCDSQDADLAQVESFQELNFLLRYKGPSDHWIGLSREQGQPWKWINGTEWTRQFPILGAGECAYLNDKGASSARCYTERKWICSKSDIHV
modifications: GlcNAc2Man5 N-glycans
- stoichiometry N: 2
